# Patent publication US20020065240A1
# Target: VEGF mitogenic receptors
# Test: cell-based or functional assay
substance,measurement,value
"purified human VEGF165 (R&D Systems, expressed in Sf21 cells) (from UniProt P15692 27-191) (ligand)","half-maximal activity, HUVEC mitogenesis ([3H]thymidine incorporation)",17 to 19 ng/mL
